Data: paper PMC6715699

T1: UPF1 (UniProt Q92900 1-352+364-1129, internal_change)
T1 sequence: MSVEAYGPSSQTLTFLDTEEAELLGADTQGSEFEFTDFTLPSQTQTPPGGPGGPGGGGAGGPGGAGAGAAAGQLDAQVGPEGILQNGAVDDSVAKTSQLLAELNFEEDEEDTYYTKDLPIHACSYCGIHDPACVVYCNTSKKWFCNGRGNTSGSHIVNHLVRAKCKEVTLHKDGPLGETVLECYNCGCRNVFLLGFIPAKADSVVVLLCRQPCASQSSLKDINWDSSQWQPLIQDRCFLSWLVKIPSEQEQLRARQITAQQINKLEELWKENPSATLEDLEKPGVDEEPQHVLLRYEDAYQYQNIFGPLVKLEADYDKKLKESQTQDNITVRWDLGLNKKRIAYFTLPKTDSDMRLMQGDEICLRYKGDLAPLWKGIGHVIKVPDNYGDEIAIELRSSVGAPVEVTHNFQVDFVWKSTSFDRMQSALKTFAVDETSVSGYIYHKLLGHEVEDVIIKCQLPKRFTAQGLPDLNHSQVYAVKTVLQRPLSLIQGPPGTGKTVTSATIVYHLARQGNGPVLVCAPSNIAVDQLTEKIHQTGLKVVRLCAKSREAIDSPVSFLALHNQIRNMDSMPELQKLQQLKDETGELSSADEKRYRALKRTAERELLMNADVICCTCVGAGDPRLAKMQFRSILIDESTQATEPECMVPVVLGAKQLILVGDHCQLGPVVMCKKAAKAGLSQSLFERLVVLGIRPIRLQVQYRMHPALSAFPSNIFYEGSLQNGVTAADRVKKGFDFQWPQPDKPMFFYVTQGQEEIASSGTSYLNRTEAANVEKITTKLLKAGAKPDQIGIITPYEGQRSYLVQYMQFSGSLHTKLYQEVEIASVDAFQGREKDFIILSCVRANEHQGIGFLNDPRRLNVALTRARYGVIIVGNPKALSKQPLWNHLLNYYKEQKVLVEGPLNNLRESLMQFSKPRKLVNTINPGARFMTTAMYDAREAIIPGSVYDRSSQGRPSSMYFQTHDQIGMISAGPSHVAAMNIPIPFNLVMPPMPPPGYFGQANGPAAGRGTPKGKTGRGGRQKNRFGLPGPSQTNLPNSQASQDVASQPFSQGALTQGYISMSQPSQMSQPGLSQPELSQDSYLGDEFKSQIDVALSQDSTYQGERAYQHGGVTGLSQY

B1: TELO (TTAGGG)3 (dsDNA)
DNA 1: TTAGGGTTAGGGTTAGGG
DNA 2: CCCTAACCCTAACCCTAA
B2: CSL specific motif (dsDNA)
DNA 1: GTTACTGTGGGAAAGAAAG
DNA 2: CTTTCTTTCCCACAGTAAC
B3: SCRAMBLED (dsDNA)
DNA 1: GCTACTCATACCTAGAACG
DNA 2: CGTTCTAGGTATGAGTAGC

Assays:
[1] = biological target: T2, CSL (RBP-Jkappa) (UniProt Q06330 1-500); test: MST; second independent experiment; 50 nM labelled DNA; MST in standard MST buffer (composition and pH not given), premium-treated capillaries, Monolith NT.115; 20 min at room temperature stated for the protein mixes; details: protein: commercial; tags: RED-NHS dye when labelled; label: 647-NHS; blunt
T2 sequence (Q06330 whole entry): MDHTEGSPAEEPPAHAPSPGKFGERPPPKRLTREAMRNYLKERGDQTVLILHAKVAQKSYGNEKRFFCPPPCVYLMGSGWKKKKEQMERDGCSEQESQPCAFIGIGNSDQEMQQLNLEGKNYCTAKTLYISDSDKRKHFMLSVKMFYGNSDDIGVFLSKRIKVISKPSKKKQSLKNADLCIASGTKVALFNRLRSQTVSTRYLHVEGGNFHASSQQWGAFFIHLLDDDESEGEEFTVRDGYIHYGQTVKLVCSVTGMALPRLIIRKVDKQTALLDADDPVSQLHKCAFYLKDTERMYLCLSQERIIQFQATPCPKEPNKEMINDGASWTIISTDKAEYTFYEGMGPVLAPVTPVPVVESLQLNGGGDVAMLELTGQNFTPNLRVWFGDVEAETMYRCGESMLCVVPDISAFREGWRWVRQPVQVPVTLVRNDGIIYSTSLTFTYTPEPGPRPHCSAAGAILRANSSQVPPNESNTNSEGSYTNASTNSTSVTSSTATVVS

[2] = biological target: T2, CSL (RBP-Jkappa); test: MST; 50 nM labelled DNA; MST in standard MST buffer (composition and pH not given), premium-treated capillaries, Monolith NT.115; 20 min at room temperature stated for the protein mixes; details: protein: commercial; tags: RED-NHS dye when labelled; label: 647-NHS; blunt
[3] = biological target: T1, UPF1; test: MST; 50 nM labelled DNA; no binding specificity; MST in standard MST buffer (composition and pH not given), premium-treated capillaries, Monolith NT.115; 20 min at room temperature stated for the protein mixes; details: protein: commercial; label: 647-NHS; blunt
[4] = biological target: T2, CSL (RBP-Jkappa); test: MST; 200 nM labelled CSL; MST in standard MST buffer (composition and pH not given), premium-treated capillaries, Monolith NT.115; 20 min at room temperature stated for the protein mixes; details: protein: commercial; tags: RED-NHS dye when labelled; blunt

Binder | Kd [1] [nM] | Kd [2] [nM] | Kd [3] [nM] | Kd [4] [nM]
B1 | 232 ± 15.4 | 235 ± 23.9 | 3520 ± 46.8 | –
B2 | – | – | – | 121 ± 17.4
B3 | – | – | – | 3380 ± 77.6
